{"source": "paper PMC9786881", "about": "(Viruses, 2022)", "binders": {"B1": {"name": "RABV phosphoprotein residues 1-68 with C-terminal His6 (P68−His6) (peptide)", "chain": "MSKIFVNPSAIRAGLADLEMAEETVDLINRNIEDNQAHLQGEPIEVDNLPEDMKRLHLDDEKSSNLGE"}, "B2": {"name": "RABV nucleoprotein lacking its N-terminal arm (N[change], residues 24-450) (domain or fragment)", "chain": "DQYEYKYPAIKDLKKPCITLGKAPDLNKAYKSVLSGMNAAKLDPDDVCSYLAAAMQFFEGTCPEDWTSYGILIARKGDRITPNSLVEIKRTDVDGNWALTGGMELTRDPTVSEHASLVGLLLSLYRLSKISGQNTGNYKTNIADRIEQIFETAPFVKIVEHHTLMTTHKMCANWSTIPNFRFLAGTYDMFFSRIEHLYSAIRVGTVVTAYEDCSGLVSFTGFIKQINLTAREAILYFFHKNFEEEIRRMFEPGQETAVPHSYFIHFRSLGLSGKSPYSSNAVGHVFNLIHFVGCYMGQVRSLNATVIAACAPHEMSVLGGYLGEEFFGKGTFERRFFRDEKELQEYEAAELTKTDVALADDGTVNSDDEDYFSGETRSPEAVYTRIMMNGGRLKRSHIRRYVSVSSNHQARPNSFAEFLNKTYSNDS"}, "B3": {"name": "full-length RABV phosphoprotein (PFL) (natural protein)", "chain": "MSKIFVNPSAIRAGLADLEMAEETVDLINRNIEDNQAHLQGEPIEVDNLPEDMKRLHLDDEKSSNLGEMVRVGEGKYREDFQMDEGEDPNLLFQSYLDNVGVQIVRQMRSGERFLKIWSQTVEEIVSYVTVNFPNPPRRSSEDKSTQTTGRELKKETTSAFSQRESQPSKARMVAQVAPGPPALEWSATNEEDDLSVEAEIAHQIAESFSKKYKFPSRSSGIFLYNFEQLKMNLDDIVKEAKNVPGVTRLAHDGSKIPLRCVLGWVALANSKKFQLLVEADKLSKIMQDDLNRYTSC"}}, "key": {"[1]": {"molecular_target": "B2", "test": "SEC-MALLS", "settings": "both partners purified"}, "[2]": {"molecular_target": "B2", "test": "fluorescence polarisation", "settings": "both partners purified"}, "[3]": {"molecular_target": "B2", "test": "fluorescence polarisation", "settings": "both partners purified", "remark": "listed apart in the source"}, "[4]": {"molecular_target": "B3", "test": "SEC-SAXS", "settings": "both partners purified"}, "SEC-SAXS": {"molecular_target": "the molecule itself", "test": "SEC-SAXS"}}, "note": "“And” between values parts separate entries of the source, which are not always exact repeats. Equal values may be shown once.", "data": [{"binder": "B1", "values": [{"measurement": "Kd", "setting": "[1]", "result": "< 1000", "unit": "nM"}, {"measurement": "Kd", "setting": "[2]", "result": "8.2 ± 0.6", "unit": "nM"}, {"measurement": "IC50", "setting": "[3]", "result": "~1000", "unit": "nM"}]}, {"binder": "B2", "values": [{"measurement": "stoichiometry N", "setting": "[4]", "result": "2 N molecules per P dimer and 1 N molecules per P dimer"}]}, {"binder": "B3", "values": [{"measurement": "stoichiometry N", "setting": "SEC-SAXS", "result": 2}]}]}
